Laboratory results reported in article PMC8782923, “A Klotho-derived peptide protects against kidney fibrosis by targeting TGF-β signaling” (Nature Communications, 2022).
Ends that are not written are not given here.

Key:
Conditions in all cases: both partners purified
[1] = target: T1, Human TβR2 (10358-H08B; Sino Biological Inc.) (human, UniProt P37173 23-166); test: microplate-based fluorescence direct binding assay; TβR2 (10 μg/ml) or BSA coated on a 96-well microplate; FITC-peptide at 50 μg/ml, 1 h at room temperature, washed four times, fluorescence read
T1 construct: TGF-β receptor 2, human; source: bought: Sino Biological Inc
T1 sequence (P37173 23-166): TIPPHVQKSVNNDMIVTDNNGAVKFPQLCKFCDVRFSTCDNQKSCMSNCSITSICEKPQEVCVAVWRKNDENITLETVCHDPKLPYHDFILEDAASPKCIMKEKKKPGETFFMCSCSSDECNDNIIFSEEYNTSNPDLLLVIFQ

[2] = target: T2, Recombinant TGF-β receptor 2 protein (UniProt P37173 23-166); test: SPR; Biacore T200, 25 °C; TβR2 amine-coupled on a CM5 chip (50 µg/ml in 10 mM acetate pH 4.0); peptides in PBS injected at 60 µl/min, 180 s association, 540 s dissociation; 1:1 binding model
T2 construct: TGF-β receptor 2, recombinant, 43.4 kDa, >95% by SDS-PAGE; By its catalogue number probably a human extracellular domain with a carrier tag, biotinylated (surmise); The TβR2 of the microplate assay (10358-H08B) is called human; also called TβR2; type 2 TGF-β receptor; source: bought: Sino Biological Inc. (10358-H03H-B)
T2 sequence (P37173 23-166): as above

[3] = target: T3, Recombinant TGF-β receptor 2 protein (10358-H03H-B; Sino Biological Inc.) (UniProt P37173 23-166); test: SPR; Biacore T200, 25 °C; TβR2 amine-coupled to a CM5 chip; peptides in PBS injected at 60 μl/min, 180 s injection, 540 s dissociation; 1:1 binding model
T3 construct: TGF-β receptor 2, recombinant, 43.4 kDa; also called TβR2; type 2 TGF-β receptor; source: bought: Sino Biological Inc. (>95% as determined by SDS-PAGE)
T3 sequence (P37173 23-166): as above

B1: FITC-labeled KP1 (peptide, UniProt Q9UEF7 57-86, looked up)
peptide: FQGTFPDGFLWAVGSAAYQTEGGWQQHGKG
modifications: also: FITC label, position not given here
notes: Klotho, human; peptide of 30 amino acids from Phe57 to Gly86; also called FITC-KP1; source: synthetic peptide, labeled with fluorescein isothiocyanate (FITC)
binding result [1]: binds

B2: Klotho-derived peptide 1 (peptide, UniProt Q9UEF7 57-86, looked up)
peptide: FQGTFPDGFLWAVGSAAYQTEGGWQQHGKG
notes: Klotho, human, 30 amino acids from Phe57 to Gly86; 3.229 kDa; also called KP1; source: synthetic peptide (GenScript, >95% purity)
koff [2]: 0.000578 s⁻¹

B3: Klotho-derived peptide 1 (KP1) (peptide, UniProt Q9UEF7 57-86, looked up)
peptide: FQGTFPDGFLWAVGSAAYQTEGGWQQHGKG
notes: Klotho, human; peptide of 30 amino acids from Phe57 to Gly86; 3.229 kDa; the results give Phe57 to Gly86; source: synthetic peptide (GenScript, >95% purity)
Kd [3]: 1410 nM | koff [3]: 0.00058 s⁻¹ | kon [3]: 408 M⁻¹ s⁻¹
